Measurements: the supplement of paper PMC10567573
± gives the standard deviation.

Assay: protein stability index of a GFP-peptide fusion (GPS, HEK-293T) (PSI 1-6); higher = more stable
[1] = treatment: DMSO, c terminus: a fixed tail appended
[2] = treatment: MLN4924 1 uM, 8 h, c terminus: a fixed tail appended
[3] = treatment: DMSO, c terminus: native
[4] = treatment: MLN4924 1 uM, 8 h, c terminus: native
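Further: 24-mer peptide tiles fused after GFP, lentivirally expressed, FACS-sorted into six equal bins by GFP/DsRed ratio, decoded by Illumina sequencing, PSI is the read-weighted mean bin number.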

Sequence | protein stability index [1] | protein stability index [2] | protein stability index [3] | protein stability index [4]
IELQGVPNDEVHPLLGVKGDGKSK [RBBP5] | 5.14 ± 0.19 | 4.96 ± 0.21 | – | –
IFFDDLDSPSKEEVFRFVQSCARA [CPOX] | 2.45 ± 0.38 | 2.69 ± 0.65 | – | –
IGTPPSVLKRQRKRRVALSPVTEN [MYBL2] | 4.22 ± 0.56 | 4.49 ± 0.14 | – | –
IIGDYFSDQDPRVRTAAIKAMLQL [INTS4] | 2.19 ± 0.28 | 2.33 ± 0.2 | – | –
IIQFVESGDDKNSNYFSMDSMEGK [TRIM29] | 3.46 ± 0.24 | 3.71 ± 0.29 | – | –
IIVTIMASQSLGSPMYFFLASLSF [OR4A15] | 3.29 ± 0.57 | 3.13 ± 0.2 | – | –
IKQKLGMNLMNELKQNFSKSWHDM [TPD52L1] | 2.09 ± 0.2 | 1.98 ± 0.35 | – | –
ILHGTRGELLLDVAWHPVRPIIAS [RBBP5] | 2.51 ± 0.33 | 2.52 ± 0.25 | – | –
ILKRRSDEALERCQILELLNAELE [CCDC89] | 2.68 ± 0.34 | 3 ± 0.42 | – | –
ILKRRYYRQHCTLELGSYIKDLSV [CTDNEP1] | 2.46 ± 0.56 | 2.25 ± 0.66 | – | –
ILTEETEVKGTLEGDVCGVEPPGP [PBXIP1] | 5.14 ± 0.39 | 5.42 ± 0.24 | – | –
IMLLDKNVPNPRIKLIDFGIAHKI [DAPK3] | 2.89 ± 0.73 | 2.52 ± 0.46 | – | –
INQEELRALEEVEMKLQKNFLTQR [C10orf62] | 3.66 ± 0.39 | 3.83 ± 0.34 | – | –
IPQLEDVSNFLKERTGFSIRPVAG [TPH1] | 2.98 ± 0.34 | 2.98 ± 0.14 | – | –
IPRGFPTIDMGPQLKVVERTRTAT [PTPRD] | 3.92 ± 0.24 | 3.68 ± 0.37 | – | –
IPVFRLARRRKKILFYCHFPDLLL [ALG2] | 2.88 ± 0.57 | 2.44 ± 0.29 | – | –
IRHQRIHTGEKPYTCHECGDSFSH [ZNF263] | 2.62 ± 0.4 | 2.7 ± 0.36 | – | –
IRLYGLQAGRLLWEQELYSQLVYS [WAS] | 3.11 ± 0.55 | 2.7 ± 0.38 | – | –
ISAEGFTDIDIDTLCAVLERDTLS [BTBD1] | 2.48 ± 0.3 | 2.63 ± 0.38 | – | –
ISESMAACTRSLLGDPPPLLTLPR [HDAC6] | 2.98 ± 0.14 | 3.29 ± 0.41 | – | –
ISEYEKSLQFDEKCLSIMLAEWEA [RPAIN] | 2.34 ± 0.3 | 2.87 ± 0.33 | – | –
ISNVCEEYIVKKLSRQEFLGMVGL [SLC35F2] | 2.32 ± 0.17 | 2.35 ± 0.13 | – | –

Sequence | protein stability index [1] | protein stability index [2] | protein stability index [3] | protein stability index [4]
ITYPMLFKLTNKNSDRMTHCGVLE [UFD1] | 2.46 ± 0.17 | 2.43 ± 0.23 | – | –
IVEDPQTKCEYMLNSMPKRLCLVC [ESRRG] | 2.39 ± 0.46 | 2.05 ± 0.24 | – | –
IYCGAGVQKDHENYMKILLKVGGI [PCMTD1] | 2.26 ± 0.17 | 2.25 ± 0.44 | – | –
IYGMEGIPEKDMDERRRLLEQKTQ [ZNF207] | 4.6 ± 0.17 | 4.69 ± 0.15 | – | –
IYRKYRKLIESELSYFVIVYSVM [FBXO39] | – | – | 2.87 ± 0.62 | 2.89 ± 0.44
KAAVSHWQQQSYLDSGIHSGATTT [CTNNB1] | 3.69 ± 0.2 | 3.78 ± 0.17 | – | –
KATAAFSNVGTAISKKFGDMSYSI [TPD52L1] | 2.72 ± 0.14 | 2.72 ± 0.13 | – | –
KCLYYLYATLDLNAVKYVSNIKFC [PDS5B] | 3.06 ± 0.41 | 2.75 ± 0.78 | – | –
KDARQWFAELSVDMEKILEIIRVI [CCNC] | 2.24 ± 0.38 | 2.15 ± 0.35 | – | –
KEDAKGKSEEELAECFRIFDRNAD [TNNC2] | 5.54 ± 0.24 | 5.71 ± 0.12 | – | –
KEIAKNLIQPINHTTLQCLAARVI [FEM1C] | 2.33 ± 0.5 | 2.33 ± 0.47 | – | –
KESGQEGVDSMAEEGTSDSNTGSE [SMARCE1] | 5.01 ± 0.61 | – | – | –
KFADNKWSVTGKAEPAMPGRLYVH [TBX5] | 2.53 ± 0.094 | 2.61 ± 0.27 | – | –
KFLAFSGPHPKSKIENGYPLHAPE [CDC14A] | 3.23 ± 0.15 | 3.16 ± 0.29 | – | –
KFLMARKFDVLRAIELFHSYRETR [PTPN9] | 2.29 ± 0.54 | 2.15 ± 0.15 | – | –
KFSQNSHLIKHRRTHTGEQPYTCS [ZNF75A] | 2.93 ± 0.14 | 3 ± 0.34 | – | –
KGKTAVDTVFRFDPRYNKWMQVAS [KLHL13] | 2.4 ± 0.3 | 2.94 ± 0.5 | – | –
KGLNARMMRGLSYSLTTSSTHKSS [RAB40A] | 3.39 ± 0.28 | 3.52 ± 0.32 | – | –
KGPGAPQYPAGTQGEQLEVPERLL [SPSB2] | 4.93 ± 0.15 | 4.72 ± 0.26 | – | –
KIAQNLDFVNLMAYDFHGSWEKVT [CHIT1] | 2.42 ± 0.35 | 2.18 ± 0.39 | – | –
KKAFLNQAQIELRLLELMNQHDTE [DYRK1B] | 3.05 ± 0.3 | 3.35 ± 0.14 | – | –
KKELEENFEKLRLSLQDQVDTLTF [MTUS2] | 3.94 ± 0.64 | 3.8 ± 0.42 | – | –

Sequence | protein stability index [1] | protein stability index [2] | protein stability index [3] | protein stability index [4]
KKIFKSHLKSSRNSTSVKKKSSRN [P2RY14] | 3.87 ± 0.32 | 4.22 ± 0.41 | – | –
KKVSEGPPLRLWRSVIEVPAVPEE [DLC1] | 3.37 ± 0.42 | 3.91 ± 0.46 | – | –
KKVSKAAILARIKRTGDGNYKSG [SCD] | – | – | 2.88 ± 1.2 | 3.28 ± 0.21
KLAVFMWLMTYVGAVFNGITLLIL [RTN3] | 2.97 ± 0.23 | 3.21 ± 0.39 | – | –
KLDFKEKAQAKVGSLDNAHHVPGG [MAP2] | 4.73 ± 0.2 | 4.7 ± 0.16 | – | –
KLMKNIRFPLMTPQELINYVQTVD [KLHL13] | 2.87 ± 0.18 | 2.82 ± 0.19 | – | –
KLSPLRLSVSNNQEPDFIDDIEEK [KMT2E] | 4.9 ± 0.24 | 5.06 ± 0.12 | – | –
KLVDAIVSGDTSKLMKILQPQDVD [RIPK4] | 2.51 ± 0.31 | 2.38 ± 0.64 | – | –
KMETMYPFIVTLEGNALQGPILQK [ZNF449] | 2.53 ± 0.24 | 2.48 ± 0.33 | – | –
KMVSAEISENRKRQWPTKSQTDRG [SDE2] | 4.52 ± 0.069 | 4.41 ± 0.2 | – | –
KNNDLVVAVNGESVETLDHDSVVE [PDZK1] | 5.37 ± 0.27 | 5.34 ± 0.14 | – | –
KQDSYEQGDSSQQSLKGHLRNNFQ [ZC2HC1C] | 4.69 ± 0.24 | 4.84 ± 0.11 | – | –
KQDVLGPSTTPPAHSSSNTIRSGI [SASS6] | 4.66 ± 0.34 | 4.63 ± 0.22 | – | –
KQESTRPEKKSDQPMCEEHEEERI [TRIM55] | 5.73 ± 0.12 | 5.48 ± 0.26 | – | –
KQLISQTKKKQWCYNCEEEAMYHC [ZMYND11] | 3.1 ± 0.17 | 3.22 ± 0.34 | – | –
KQLLDSKIGFEIGIENEEDTSKQK [ZNF449] | 5.3 ± 0.27 | 5.26 ± 0.3 | – | –
KQNEKLNNQEEETEFKELDGLREA [CCDC89] | 5.51 ± 0.28 | 5.54 ± 0.3 | – | –
KQPDLTMVRKIGCYAAMKKKIYAM [GAN] | 2.28 ± 0.45 | 2.21 ± 0.14 | – | –
KQYDQQFPDGDDEFDSPHEDIVFE [STX11] | 5.18 ± 0.14 | 5.11 ± 0.2 | – | –
KQYVLLSILLCLLASGLVVFFLFP [TMEM106C] | 2.43 ± 0.28 | 2.56 ± 0.44 | – | –
KRCIVILREIPETTPIEEVKGLFK [LARP4] | 2.23 ± 0.46 | 1.93 ± 0.47 | – | –
